Measured values published in paper PMC1904291.

Tests used:
Assay in all cases: EMSA
I-CreI Δ1 = molecular target: T1, I-CreI Δ1 (UniProt P05725 1-137)
T1 sequence: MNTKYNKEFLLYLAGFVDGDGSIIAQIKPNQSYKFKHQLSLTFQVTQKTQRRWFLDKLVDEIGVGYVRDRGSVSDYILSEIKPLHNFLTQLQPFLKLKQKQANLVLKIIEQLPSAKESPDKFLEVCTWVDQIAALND

I-CreI S138A = molecular target: T2, I-CreI S138A (UniProt P05725 1-163, S138A)
T2 sequence: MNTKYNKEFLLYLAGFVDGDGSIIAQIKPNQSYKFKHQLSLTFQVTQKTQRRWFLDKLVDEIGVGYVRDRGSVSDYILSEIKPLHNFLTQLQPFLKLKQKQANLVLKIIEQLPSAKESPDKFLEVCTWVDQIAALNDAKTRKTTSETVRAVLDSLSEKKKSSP

I-CreI = molecular target: T3, I-CreI (UniProt P05725 1-163)
T3 sequence: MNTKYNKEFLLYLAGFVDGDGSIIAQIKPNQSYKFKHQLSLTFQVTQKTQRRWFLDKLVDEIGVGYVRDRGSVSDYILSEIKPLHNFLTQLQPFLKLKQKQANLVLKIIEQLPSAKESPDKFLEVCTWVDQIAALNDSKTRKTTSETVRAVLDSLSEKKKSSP

I-CreI K139M = molecular target: T4, I-CreI K139M (UniProt P05725 1-163, K139M)
T4 sequence: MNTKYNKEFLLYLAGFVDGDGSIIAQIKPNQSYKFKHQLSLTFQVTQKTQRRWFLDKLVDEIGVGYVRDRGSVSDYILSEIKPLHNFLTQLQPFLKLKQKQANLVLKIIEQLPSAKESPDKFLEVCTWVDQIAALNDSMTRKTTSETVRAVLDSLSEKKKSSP

I-CreI AM = molecular target: T5, I-CreI AM (UniProt P05725 1-163, S138A;K139M)
T5 sequence: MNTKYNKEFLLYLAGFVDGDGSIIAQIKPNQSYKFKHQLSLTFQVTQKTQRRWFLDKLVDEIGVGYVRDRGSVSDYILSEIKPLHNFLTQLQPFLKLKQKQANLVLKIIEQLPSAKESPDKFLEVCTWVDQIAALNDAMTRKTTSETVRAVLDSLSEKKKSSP

I-CreI GG = molecular target: T6, I-CreI GG (UniProt P05725 1-163, K142G;T143G)
T6 sequence: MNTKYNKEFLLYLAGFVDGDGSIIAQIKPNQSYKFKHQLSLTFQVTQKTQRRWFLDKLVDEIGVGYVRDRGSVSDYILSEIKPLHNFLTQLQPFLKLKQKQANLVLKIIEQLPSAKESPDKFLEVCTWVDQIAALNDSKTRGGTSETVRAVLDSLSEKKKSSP

B1: 6-FAM I-CreI target duplex (dsDNA)
DNA 1: GCAAAACGTCGTGAGACAGTTTGC
DNA 2: GCAAACTGTCTCACGACGTTTTGC
binding result (I-CreI Δ1): no binding | Kd (I-CreI S138A): 0.25 µM | Kd (I-CreI): 0.0002 µM | Kd (I-CreI K139M): 0.11 µM | Kd (I-CreI AM): 1.24 µM | Kd (I-CreI GG): 0.05 µM
